Assay results published in the supplement of paper PMC9170038.

System: MS2 coat protein
Test: apparent KD of MS2 coat protein; designed switch direction (-1 OFF switch, 1 ON switch): -1; higher = weaker reporter binding
Summary of the method: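 The reported apparent KD is a per-design median over clusters, from curve fits of normalised cluster fluorescence. Protein titrations used SNAP-549-labelled MS2 coat protein, doubled from 0.7 or 1.5 nM to 3 µM, in Tris-HCl pH 7.5 buffer with KCl, MgCl2, BSA, DTT, tRNA and Tween-20, with no input, 200 uM small-molecule ligand, or an oligonucleotide input. The RNA switches were transcribed on Illumina chips by stalled E. coli RNA polymerase.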

[1] = input ligand: microRNA oligo, concentration not stated
[2] = Eterna round: R95, input ligand: FMN 200 uM
[3] = Eterna round: R95, input ligand: microRNA oligo, concentration not stated
[4] = Eterna round: R95, input ligand: none

Sequence | apparent KD of MS2 coat protein (input ligand: FMN 200 uM) [nM] | apparent KD of MS2 coat protein (input ligand: none) [nM] | apparent KD of MS2 coat protein [3] [nM] | also measured
UCAUAUAACGAGGAUAUGCGGGCCGUUUUCCCAGCAGAAGGCGUUACAUGAGGAUCACCCAUGUACCCGGGUAA [EX6 A.29] (Eterna round: R97, puzzle: Exclusion 6) | 18.1 | 515 |  | 
UUGUUGUAUGUAGGAUAUGCGUAUUAUUAUUAUGCAGAAGGACAUGAGGAUCACCCAUGUAUAUUAUUAUUAUAUAUUAUAUAU [Title] (Eterna round: R96, puzzle: Exclusion NG 1) |  |  |  | apparent KD of MS2 coat protein [1]: 22 nM
AGCUGUGGCCGAGGAUAUCUAACUUCAAAUACCGACGUAUAGUCGGACAUGAGGAUCACCCAUGUAGAGAAGGCGGUCUCAGCA [Eli eng2 - 037] (Eterna round: R96, puzzle: Exclusion NG 2) |  |  |  | apparent KD of MS2 coat protein [1]: 12.3 nM
UACCGGCGGACCGAAGCUUUUUGCUUGUCUUAUACUACGACAUGAGGAUCACCCAUGUGGUGGUGGUCCGUUGUAGU [JL ViennaUCT Bitein mod 3] (puzzle: Sensor v3, turn-off variant 2) |  |  | 13.1 | apparent KD of MS2 coat protein [2]: 48.3 nM; apparent KD of MS2 coat protein [4]: 52.1 nM
AUACAACAUGAGGAUCACCCAUGUGAGGAUAUGCGAUAUAUCAUCAUCAUAAUCAUAAGCAGAAGGCACAACAU [Another One] (puzzle: Exclusion 1) |  |  | 35.6 | apparent KD of MS2 coat protein [2]: 35.7 nM; apparent KD of MS2 coat protein [4]: 34 nM
UGAAUGUGAGGAUAUGGUGAGUAGUGCCAGAGCGCUGCUCACCAGAAGGCACAUGAGGAUCACCCAUGUACUUG [Mat - Exclusion 4 - Mod of JL - D18] (puzzle: Exclusion 4) |  |  | 47.8 | 
ACAAGCUUUUAGAUUCUUAACAUGAGGAUCACCCAUGUGCUCGUCUUAUUGGCCGGCCGGCCGCCGGCCGGCCGGCC (Eterna round: R97, puzzle: Sensor, turn-off variant 1) | 43.6 | 40.9 |  | 
GUCACAUGGACAUAGGAUCACAUGAGGAUCACCCAUGUGACUAACAAGCUUUUUGCUCGUCUUAUGUCCAUGUGAAA [Stov1/15-A2] (Eterna round: R97, puzzle: Sensor, turn-off variant 1) | 14.1 | 13.2 |  | 
UAUUAGCAAGCGAGAUCUCACAUGAGGAUCACCCAUGUGCUCGUCUUAUAAGGUACUGUGACGAUAGUCACGGUACC [Mat - Sensor, turn-off var - Eli Mod - D38] (Eterna round: R97, puzzle: Sensor, turn-off variant 1) | 15.3 | 14.6 |  | 
AGAAGAAAAGAGAUUUGCUCGUCUUAUAAGUAUGAAGUAACAUGAGGAUCACCCAUGUAAGUCUAGUGAGAAGGAAG [JR_SV3TOV2_Sub001] (puzzle: Sensor v3, turn-off variant 2) |  |  | 50 | apparent KD of MS2 coat protein [2]: 22.9 nM; apparent KD of MS2 coat protein [4]: 24.4 nM
AAAUCACAUGAGGAUCACCCAUGUGAGGAUAUGAUACUAUGUACUUCGGUACAUAGUAUCAGAAGGCAUAUGGA [Ex1-3: 32] (Eterna round: R96, puzzle: Exclusion 1) | 39.4 | 23.7 |  | apparent KD of MS2 coat protein [1]: 20.6 nM
AAAGAACAUGAGGAUCACCCAUGUGAGGAUAUGCGAAAACCGCUGACAAACCAGACGGGCAGAAGGCAUAUGGU [Birima] (puzzle: Exclusion 1) |  |  | 56.2 | 
CAGGUUAGAGGAUAUACGUAGGUACAGAUCUGUGUGUUUCUACAUGAGGAUCACCCAUGUAGAAGGCUAUCCUG [LRO-Excl2-10] (puzzle: Exclusion 2) |  |  | 25.3 | 
AAUCGACAUGAGGAUCACCCAUGUUAGGAUAUGCGGAAUCGGUCAAUCAAUCGAUCAAGCAGAAGGGACGGGUU [Candy Rainbow] (puzzle: Exclusion 1) |  |  | 27.4 | apparent KD of MS2 coat protein [2]: 29.1 nM; apparent KD of MS2 coat protein [4]: 34.2 nM
AGGUGUAGAGGAUAUACUGCAAAGCACAUGAGGAUCACCCAUGUCCCUCUAUGGGAUUAUGUAGAAGGCUACACCA [Omei Ex5 C6] (Eterna round: R97, puzzle: Exclusion 5) | 17.5 | 20.2 |  | 
UGCUAGUCAGGAUAUACGAACAUGUCAAAAGACGUGAAGGGACAUGAGGAUCACCCAUGUAGAAGGGACUAGCC [salish99_ex2_r3_008] (puzzle: Exclusion 2) |  |  | 25.5 | 
ACGCGAUAUGGCGUAACGCGACAUGAGGAUCACCCAUGUAACGAGGAUAUGAUCUCGAGAGAGGGUCAGAAGGCGUUACAAUAU [Eternabot solution 23] (Eterna round: R96, puzzle: Exclusion NG 3) | 130 | 74.3 |  | apparent KD of MS2 coat protein [1]: 70.7 nM
CCCUCACUUGAGGAUCACCCAAGUCAGGAUAUCUCCCGCCCAACACCAUCCGGGCGCCAGAGAAGGGACUCAAA [Soenonor] (Eterna round: R97, puzzle: Exclusion 1) | 24.4 | 17.5 |  | 
GCCUCACAUGAGGAUCACCCAUGUCAGGAUAUAGGAGACGGUAGCUUUGCUGCCAUCGCUAGAAGGGACUGGCU (puzzle: Exclusion 1) |  |  | 65.6 | 
GAUUAAUUAAUUAAUUAAUACAUGAGGAUCACCCAUGUAAUUUAAGAUCCUUAUACAAGCUUUGAUCUCGUCUUAUA [Stov1/5-A2] (Eterna round: R97, puzzle: Sensor, turn-off variant 1) | 163 | 159 |  | 
ACAAGUUUUUAGAUUCUUAACAUGAGGAUCACCCAUGUGCUCGUCUUGUUGGGCCCGGGCCCGCCGGGCCCGGGCCC (Eterna round: R97, puzzle: Sensor, turn-off variant 1) | 60.5 | 72.2 |  | 
UUUGUUUAUGUGAGGAUAUACUGUUUGUUUUGUUUGUAGAAGGUACAUGAGGAUCACCCAUGUUUUGUAUUUAU [JR_BME4_Sub034] (puzzle: Brourd's mod of Exclusion 4) |  |  | 18.4 | 
AGUACUAACCCGAAAGUGUUAGUACAAUAAGCUUGUGAAACAUGAGGAUCACCCAUGUCCUCAUAAGCUCGUCUUAU [salish99_TOv2_r3_024] (puzzle: Sensor v3, turn-off variant 2) |  |  | 766 | apparent KD of MS2 coat protein [2]: 16.7 nM; apparent KD of MS2 coat protein [4]: 15.3 nM
GUGAUCUAUCAUGGGAUAAACAUGAGGAUCACCCAUGUAAACAAGUUUUUUGCUCGUCUUAUAAUAAGAUAGAUCAC [Antenna 2 - Jieux - Sensor, turn-off variant 1] (Eterna round: R97, puzzle: Sensor, turn-off variant 1) | 21.1 | 20.9 |  | 
CUAUUACGAGGAUAUGAUUUAAGUAACAUGAGGAUCACCCAUGUUUUUCCGUUGUUAUGUUCAGAAGGCGUAUUAU [JR_E5_Sub023] (puzzle: Exclusion 5) |  |  | 35.6 | apparent KD of MS2 coat protein [2]: 86.1 nM; apparent KD of MS2 coat protein [4]: 38.8 nM
GAAAAGUGAGGAUAUGCUCGAUCCUGGCACCAAGUGAAGUCACUUGAGGAUCACCCAAGUAGAAGGCACAUAAA [Tiederes] (Eterna round: R97, puzzle: Exclusion 2) | 206 | 55.3 |  | 
GCGGUACAUGAGGAUCACCCAUGUUAGGAUAUUCUACGUCUCUAAUCUGAAACGCAAGGAAGAAGGAGCGUGGG [Eternabot (Original) Solution 21] (Eterna round: R97, puzzle: Exclusion 1) | 83.7 | 28.2 |  | 
